Reference: paper PMC4613707
Blank lines part the entries; values can stand above or below the substance they belong to.

Experiments:
FLAG–TSP5 (human) = FLAG–TSP5 (human) (UniProt P49747); experiment: SDS/PAGE under non-reducing and reducing conditions with immunoblot; FLAG-tagged proteins immunoprecipitated with anti-FLAG M2 on rProtein G agarose from conditioned media of transfected COS7 cells, washed in Tris-buffered saline with 2 mM CaCl2, eluted by boiling in SDS sample buffer with or without 100 mM DTT; oligomers formed in the cells
FLAG–TSP-5-1C (human) = experiment: as above
[1] = molecular target: FLAG–mRFP–TSP-5-1C (human); experiment: SDS/PAGE under non-reducing and reducing conditions with immunoblot; mRFP-tagged proteins collected with RFP-Trap_A beads from conditioned media of transfected COS7 cells, eluted by boiling in SDS sample buffer with or without 100 mM DTT; immunoblot for RFP (and FLAG, result not shown); oligomers formed in the cells

FLAG–TSP5, P49747 21-757 (natural protein; other documents disagree on this pair), sequence (P49747 21-757): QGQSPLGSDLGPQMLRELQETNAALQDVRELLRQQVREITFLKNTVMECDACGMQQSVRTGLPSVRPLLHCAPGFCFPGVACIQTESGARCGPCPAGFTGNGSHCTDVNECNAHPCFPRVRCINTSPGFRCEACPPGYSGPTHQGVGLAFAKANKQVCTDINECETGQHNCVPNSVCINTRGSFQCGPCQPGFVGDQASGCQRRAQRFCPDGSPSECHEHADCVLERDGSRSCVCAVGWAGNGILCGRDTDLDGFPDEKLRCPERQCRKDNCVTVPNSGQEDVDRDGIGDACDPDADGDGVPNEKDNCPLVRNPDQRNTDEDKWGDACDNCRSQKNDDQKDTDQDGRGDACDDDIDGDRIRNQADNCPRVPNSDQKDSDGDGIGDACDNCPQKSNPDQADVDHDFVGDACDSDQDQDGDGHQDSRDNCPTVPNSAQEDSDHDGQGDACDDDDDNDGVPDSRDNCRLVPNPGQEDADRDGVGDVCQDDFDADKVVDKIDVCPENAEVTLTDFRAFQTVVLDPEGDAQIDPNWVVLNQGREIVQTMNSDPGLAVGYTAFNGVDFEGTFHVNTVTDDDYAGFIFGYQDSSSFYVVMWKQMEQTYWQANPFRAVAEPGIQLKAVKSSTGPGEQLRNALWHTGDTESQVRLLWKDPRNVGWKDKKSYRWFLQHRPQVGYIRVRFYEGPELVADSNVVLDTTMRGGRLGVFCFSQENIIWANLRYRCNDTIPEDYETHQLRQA

stoichiometry N (FLAG–TSP5 (human)): 5
Substance: FLAG–TSP5, P49747 21-757 (natural protein; other documents disagree on this pair)

stoichiometry N (FLAG–TSP-5-1C (human)): 5
Substance: FLAG–TSP-5-1C

stoichiometry N [1]: 5
Substance: FLAG–mRFP–TSP-5-1C
